B1: CPEB3 Ribozyme (parent)
chain: UAACAGGGGGCCACAGCAGAAGCGUUCACGUCGCAGCCCCUGUCAGAUUCUGGUGAAUCUGCGAAUUCUGCUGUAUAUCUC

Variants of: B1
Test: self-cleavage, relative activity (ratio to wild type); higher = more cleavage; in vitro, sequencing
How it was run: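 For each CPEB3 ribozyme variant, relative activity is its cleaved/total read fraction divided by the unmutated ribozyme's. Barcoded error-prone PCR libraries were transcribed by T7 RNA polymerase (5 hours, 37°C) and held in DNase I for 15 min before an EDTA stop, with cleavage occurring throughout. Template-switching reverse transcription and Illumina sequencing were used to read the RNAs. A 5-read minimum applied, and results are the mean of three batches.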

Point of comparison: UAGCAGGGGGCCACAGCAGAAGCGUUCACGUCGCAGCUCCUGUCAGAUUCUGGUGAAUCUGCGAAUUCUGCUGUAUAUCUC [A3G C38U], self-cleavage 0.83. Against it:
- UAGCAGGGGGCCACAGCAUAAGCGUUCACGUCGCAGCCCCUGUCAGAUUCUGGUGAAUCUGCGAAUUCUGCUGUAUAUCUC [A3G G19U] — lower, 0.41
- UAGCAGGGGGCCACAGCAGAAGCGUUCACGUCGAAGCCCCUGUCAGAUUCUGGUGAAUCUGCGAAUUCUGCUGUAUAUCUC [A3G C34A] — lower, 0.2
- UAGCAGGGGGCCACAGCAGAAGCGUUCACGUCGUAGCCCCUGUCAGAUUCUGGUGAAUCUGCGAAUUCUGCUGUAUAUCUC [A3G C34U] — lower, 0.25
- UAGCAGGGGGCCACAGCAGAAGCGUUCACGUCGGAGCCCCUGUCAGAUUCUGGUGAAUCUGCGAAUUCUGCUGUAUAUCUC [A3G C34G] — lower, 0.43
- UAGCAGGGGGCCACAGCAGAAGCGUUCACGUCGCAGCCCCUGUCAGAUUGUGGUGAAUCUGCGAAUUCUGCUGUAUAUCUC [A3G C50G] — lower, 0.8
- UAGCAGGGGGCCACAGCAGAAGCGUUCACGUCGCAGCCCCUGUCAGAUUAUGGUGAAUCUGCGAAUUCUGCUGUAUAUCUC [A3G C50A] — lower, 0.82
- UAGCAGGGGGCCACAGCAGAAGCGUUCACGUCGCAGCCCCUGUCAGAUUUUGGUGAAUCUGCGAAUUCUGCUGUAUAUCUC [A3G C50U] — higher, 0.94
- UAGCAGGGGGCCACAGCAGAAGCAUUCACGUCGCAGCCCCUGUCAGAUUCUGGUGAAUCUGCGAAUUCUGCUGUAUAUCUC [A3G G24A] — lower, 0.6
- UAGCAGGGGGCCACAGCAGAAGCGUUCACGUCGCAGCCCCUGUCAGAUUCUGGUGAAUCUUCGAAUUCUGCUGUAUAUCUC [A3G G61U] — lower, 0.8
- UAGCAGGGGGCCACAGCAGAAGCGUUCACGUCGCAGCCCCUGUCAGAUUCUGGUGAAUCUACGAAUUCUGCUGUAUAUCUC [A3G G61A] — lower, 0.53
- UAGCAGGGGGCCACAGCAGAAGCGUUCACGUCGCAGACCCUGUCAGAUUCUGGUGAAUCUGCGAAUUCUGCUGUAUAUCUC [A3G C37A] — lower, 0.36
- UAGCAGGGGGCCACAGCAGAAGCGUUCACGUCGCAGUCCCUGUCAGAUUCUGGUGAAUCUGCGAAUUCUGCUGUAUAUCUC [A3G C37U] — higher, 0.85
- UAGCAGGGGGCCACAGCAGAAGCGUUCACGUCGCAGCCCCUGUCAGAUUCUGGUGAAUCUGUGAAUUCUGCUGUAUAUCUC [A3G C62U] — lower, 0.39
- UAGCAGGGGGCCACAGCAGAAGCGUUCACGUCGCAGCCCCUGUCAGAUUCUGGUGAAUCUGAGAAUUCUGCUGUAUAUCUC [A3G C62A] — lower, 0.59
- UAGCAGGGGGCCACAGCAGAAGCGUUCACGUCGCAGCCCCUGUCAGAUUCUGGUGAAUCUGGGAAUUCUGCUGUAUAUCUC [A3G C62G] — lower, 0.32
- UAGCAGGGGGCCACAGCAGAAGCGUUCACGUCGCAGCCCCUGUCAGAUUCUGCUGAAUCUGCGAAUUCUGCUGUAUAUCUC [A3G G53C] — higher, 1.13
- UAGCAGGGGGCCACAGCAGAAGCGUUCACGUCGCAGCCCCUGUCAGAUUCUGAUGAAUCUGCGAAUUCUGCUGUAUAUCUC [A3G G53A] — higher, 1.02
- UAGCAGGGGGCCACAGCAGAAGCGUUCACGUCGCAGCGCCUGUCAGAUUCUGGUGAAUCUGCGAAUUCUGCUGUAUAUCUC [A3G C38G] — higher, 1.02
- UAGCAGGGGGCCACAGCAGAAGCGUUCACGUCGCAGCCCCUGUAAGAUUCUGGUGAAUCUGCGAAUUCUGCUGUAUAUCUC [A3G C44A] — lower, 0.42
- UAGCAGAGGGCCACAGCAGAAGCGUUCACGUCGCAGCCCCUGUCAGAUUCUGGUGAAUCUGCGAAUUCUGCUGUAUAUCUC [A3G G7A] — lower, 0.47
- UAGCAGUGGGCCACAGCAGAAGCGUUCACGUCGCAGCCCCUGUCAGAUUCUGGUGAAUCUGCGAAUUCUGCUGUAUAUCUC [A3G G7U] — lower, 0.45
- UAGCAGGGGGCCACAGCAGAAGCGUUCACGUCGCAGCCCCUGUCAGAUUCUGGUUAAUCUGCGAAUUCUGCUGUAUAUCUC [A3G G55U] — higher, 1.12
- UAGCAGGGGGCCACAGCAGAAGCGUUCACAUCGCAGCCCCUGUCAGAUUCUGGUGAAUCUGCGAAUUCUGCUGUAUAUCUC [A3G G30A] — lower, 0.44
- UAGCAGGGGGCCACAGCAGAAGCGUUCACGUCGCAGCCCCUGUCAAAUUCUGGUGAAUCUGCGAAUUCUGCUGUAUAUCUC [A3G G46A] — lower, 0.13
- UAGCAGGGGGCCACAGCAGAAGCGUUCACGUCGCAGCCCCUGUCACAUUCUGGUGAAUCUGCGAAUUCUGCUGUAUAUCUC [A3G G46C] — lower, 0.39
- UAGCAGGGGGCCACAGCAGAAGCGUUCACGUCGCAGCCCAUGUCAGAUUCUGGUGAAUCUGCGAAUUCUGCUGUAUAUCUC [A3G C40A] — lower, 0.32
- UAGCAGGGGGCCACAGCAGAAGCGUUCACGUCGCAGCCCGUGUCAGAUUCUGGUGAAUCUGCGAAUUCUGCUGUAUAUCUC [A3G C40G] — lower, 0.5
- UAGCAGGGGGCCACAGCAGAAGCGUUCACGUCGCAGCCCUUGUCAGAUUCUGGUGAAUCUGCGAAUUCUGCUGUAUAUCUC [A3G C40U] — lower, 0.64
- UAGCAGGGGGCCACAGCAGAAGCGUUCACGUCCCAGCCCCUGUCAGAUUCUGGUGAAUCUGCGAAUUCUGCUGUAUAUCUC [A3G G33C] — lower, 0.31
- UAGCAGGGGGCCACAGCAGAAGCGUUCACGUCUCAGCCCCUGUCAGAUUCUGGUGAAUCUGCGAAUUCUGCUGUAUAUCUC [A3G G33U] — lower, 0.11
- UAGCAGGGGGCCACAGCAGAAGCGUUCACGUCACAGCCCCUGUCAGAUUCUGGUGAAUCUGCGAAUUCUGCUGUAUAUCUC [A3G G33A] — lower, 0.38
- UAGCAGGGGGCCACAGCAGAAGCGUUCACGUCGCAGCCCCUGUCAGAUUCUGGUGAAUCUGCCAAUUCUGCUGUAUAUCUC [A3G G63C] — higher, 1.06
- UAGCAGGGGGCCACAGCAGAAGCGUUCACGUCGCAGCCCCUGUCAGAUUCUGGUGAAUCUGCAAAUUCUGCUGUAUAUCUC [A3G G63A] — lower, 0.75

Source: the RNAGym collection of RNA variant scans (doi:10.1093/nar/gkz1192)
